The text below walks through data of the DeepSol protein solubility set.

The data set is described as follows: soluble on expression in E. coli; label from the status in PepcDB or PDB records.
Turning to “MGSDKIHHHHHHMPKERVDVLAYKQGLFNTREQAKRGVMAGLVVNVINGERYDKPGEKIDEATELKLKGDKLKYVSRGGLKLEKALKVFVISVDGQITLDIGASTGGFTDVMLQNGAQLVYAVDVGTNQLVWKLRQDERVCSMEQYNFRYAEPSDFERGQPTFASIDVSFISLNLILPALSKILTDGGQVVALIKPQFEAGREQIGKHGIVKDKSVHETVLETVTTFATNYGFTVKELDFSPIQGGHGNIEFLAYLEKSAQAQNQVLTKIKSIVEQAHKEFKKNEET”, the “soluble on expression in E. coli” value was “not soluble”.
For the sequence “MEGERMNAFPSTMMDEELNLWDFLERAAALFGRKEVVSRLHTGEVHRTTYAEVYQRARRLMGGLRALGVGVGDRVATLGFNHFRHLEAYFAVPGMGAVLHTANPRLSPKEIAYILNHAEDKVLLFDPNLLPLVEAIRGELKTVQHFVVMDEKAPEGYLAYEEALGEEADPVRVPERAACGMAYTTGTTGLPKGVVYSHRALVLHSLAASLVDGTALSEKDVVLPVVPMFHVNAWCLPYAATLVGAKQVLPGPRLDPASLVELFDGEGVTFTAGVPTVWLALADYLESTGHRLKTLRRLVVGGSAAPRSLIARFERMGVEVRQGYGLTETSPVVVQNFVKSHLESLSEEEKLTLKAKTGLPIPLVRLRVADEEGRPVPKDGKALGEVQLKGPWITGGYYGNEEATRSALTPDGFFRTGDIAVWDEEGYVEIKDRLKDLIKSGGEWISSVDLENALMGHPKVKEAAVVAIPHPKWQERPLAVVVPRGEKPTPEELNEHLLKAGFAKWQLPDAYVFAEEIPRTSAGKFLKRALREQYKNYYGGA”, the “soluble on expression in E. coli” value is given as “soluble”.
On to “MSLQEIKGLSFYHQDWEVYCSNTGTCRAAGYQSDDGSQQPASILLTREAGSKQPVQAEFALAGDDQETFAANKIKNIRFYVNGKDLGTVSVKGVDSPLMGKLSTAQVNGLLQQATQKVDIVFKNNHYVWKISDSGMTAALLKVDDFQKRIGTVGALVKKGKSDDSKVLMPQPKLVIKKVKTADQPYLTLNPKNKQYASLYKLLMAAQPTPKEDGFCEGVYDFDSDAITAQSIELYKLTNNKVLATTLCWRGAYNEGYGAWVLNQSLTGPATYITQSASDIASGIISSAQKGRGIGDCWMSQSWIWNGQKYVQNQDMWTGMCKGLAAGGVWELDQIEAVVKEGHHHHHH”, for which the “soluble on expression in E. coli” value is on record as “soluble”.
Regarding “MPILFDCNAIASQVLKDEASALLESVGQFQKPNDLEAIVKLILKSQENGGKLVIVGVGKSALVAQKIVASMLSTGNRSAFLHPTEAMHGDLGMVEKNDVVLMISYGGESLELLNLVSHLKRLSHKIITFTKSPNSSLSKLGDYYLSLKIQKEACPINTAPTTSTTLTLALGDVLMACLMRAKNFSQEDFASFHPGGLLGKKLFVKVKDLLQTTNLPLIAPSTSFKDALIEMSEKRLGSAILVNEANELVGVLSDGDVRRALLKGVSLKSEVRHFATLKPKSFKNLDALLLEALEFLERHKIQLLVCVDDHNKVLGVLHLHQLLELGLKA”, the “soluble on expression in E. coli” value is recorded as “not soluble”.
Turning to “MSLSDVSSNYWAAPFIQQLSQRGVIAGFPDGSFRPEEAVTRAQFAAMVNKAFQKSQQRSPINFADVPSNYWASSAIQQAYTIGFLSGYPGNRFEPNQAIPRQQVLVSLANGLEYSPIGNTESTLQYFNDASNIASYARSPMAAATEKQIVVNYPNVKFLNPTATATRAQVAAFIYQALVSSNQASAINSEGHHHHHH”, the “soluble on expression in E. coli” value is listed as “soluble”.
For the sequence “MQFYAALFDFPCVPEISGPQPGNDEKSWQRDFLALTNARGTFDPWDTQTCQPCTLEGIVSRNHDAFSVADFSHNVFKYVRKNHVKTTVHWKRHWQRARMAHEFVYGEQS”, the “soluble on expression in E. coli” value is given as “not soluble”.
The result for “MSLTSYALLHTQRVTAKNGEVFTISPDLWERNQQQQSLLLRYFALPLKEENNRLWLGVDSLSNLSACETIAFITGKPVEPILLESSQLKELLQQLTPNQMQVEEQVEGHHHHHH” reads “soluble”; that for “SKKLLFQFDTDATPSVFDVVVGYDGGADHITGYGNVTPDNVGAYVDGTIYTRGGKEKQSTAIFVGGGDMAAGERVFEAVKKRFFGPFRVSCMLDSNGSNTTAAAGVALVVKAAGGSVKGKKAVVLAGTGPVGMRSAALLAGEGAEVVLCGRKLDKAQAAADSVNKRFKVNVTAAETADDASRAEAVKGAHFVFTAGAIGLELLPQAAWQNESSIEIVADYNAQPPLGIGGIDATDKGKEYGGKRAFGALGIGGLKLKLHRACIAKLFESSEGVFDAEEIYKLAKEMA”, “soluble”; that for “MGSDKIHHHHHHMGIENMKICIVSFTKKGYELSCDIAYKLEKSAYEVEVFTKCSRLSDENIKNSTDENYRNTGYISQNISDWTAAQMSEKKALIFIGACGIAVRAIASSVNNKLKDSPVIVIDELGKFVIPILSGHVGGANEFAVLLAALMNATPVITTATDINNKFAVDVFAKKCRLAIVNKDGIARVSSKVLAGEVVTMSVDWEHIPAKHRSLIKAFLDKADMSADAIKTVDFPPAYGADIVVSCEKEKDTKNGSIYLKPTQFVLGIGCRRDTAFENIDRAIRQSLLKLQIDISDIDMIASIDVKKDEPGIKEFCERNRIEFVTYTADELMAVQGEFSASQFVREHVGVDNVCERAAVLACSRECDKAGELIYKKHKYDRVTVAAARYPD”, “not soluble”.
In the case of “MSLAKEPLIRVLLIEDDPMVQEVNRMFVEKLSGFTIVGTTATGEEGMVKTRELQPDLILLDIFMPKQDGLSFIKQIREQYIDVDIIAVTAANDTKTIKTLLRYGVMDYLVKPFTFERLKAALTQYEEMFRKMQKEAELSQDSLDEMIKQKQAQANMDDLPKGLHAHTLQQVIERLEELDEPKSAEEIGRDVGLARVTVRRYLNYLESVGQVEMDLTYGSIGRPIQTYKLKEGHHHHHH”, the “soluble on expression in E. coli” value is on record as “soluble”.
The result for “MQVSGSSGNRIWDANLSQNLTYTWTPQTYSGFYYDLDTGEGSENMTIQLTEGSRSVQRNGLQYETRPIETNFEYGNWGSYQVIGFMAERYFAGYTENSNFVNDDISVISDGQLSKILIDSDDRKSLYTGSSLILEEGYSLNIVEVDVNGNTVWVQLEKDGDVIDNGFLSSNSNYVYETDLGDADDVPLIAVHLAQIFRGTETNAIFVEGIFQISDEYVQIENGDRFGKMEISSTSSSGIIMRNRDSFTLGRGDTVDIMGKLSFVVADSSELRFAPIVEISEPGTYELRLEHHHHHH” reads “not soluble”; that for “GSQQGKFDTKGIESTDEAKMSFLVTLNNVEVCSENISTLKKTLESDCTKLFSQGIGGEQAQAKFDSCLSDLAAVSNKFRDLLQEGLTELNSTAIKPQVQPWINSFFSVSHNIEEEEFNDYEANDPWVQQFILNLEQQMAEFKASLSPVIYDSLTGLMTSLVAVELEKVVLKSTFNRLGGLQFDKELRSLIAYLTTVTTWTIRDKFARLSQMATILNLERVTEILDYWGPNSGPLTWRLTPAEVRQVLALRIDFRSEDIKRLRL”, “soluble”; that for “MFRLEDFNFHNKTVFLRVDLNSPMKDGKIISDARFKAVLPTIRYLIESGAKVVIGTHQGKPYSEDYTTTEEHARVLSELLDQHVEYIEDIFGRYAREKIKELKSGEVAILENLRFSAEEVKNKPIEECEKTFLVKKLSKVIDYVVNDAFATAHRSQPSLVGFARIKPMIMGFLMEKEIEALMRAYYSKDSPKIYVLGGAKVEDSLKVVENVLRRERADLVLTGGLVANVFTLAKGFDLGRKNVEFMKKKGLLDYVKHAEEILDEFYPYIRTPVDFAVDYKGERVEIDLLSENRGLLHQYQIMDIGKRTAEKYREILMKARIIVANGPMGVFEREEFAIGTVEVFKAIADSPAFSVLGGGHSIASIQKYGITGITHISTGGGAMLSFFAGEELPVLRALQISYEKFKEVVK”, “soluble”.
Take “MESSDIASRIWLIAGPTASGKSAYALDLAERIDGEIVNADSMQIYAGLRVLTAGPSQEETARAPHHLFQIVDPALGWSVGRWLEAATQALAEIQARGKPAIVVGGTGLYFRALTHGLADVPPVPETQREISSLLYAARGETEFREILKPLDPEAEARIESGDRQRLVRAHAVAITTGKSLTAWQTDTKPALAPGSWKGLVLDPPRAELYARCDARLAVMVEQGALDEVRALETRGLDPALPALKAVGYREFAAHLRGETSLDQALDAARQETRRYAKRQLTWFRNQTPDWERIVPLEHHHHHH”: the “soluble on expression in E. coli” value is given as “not soluble”.
As for “SNADPKEGVQYEVLSTSLENDGMAPVTEVFALSCGHCRNMENFLPVISQEAGTDIGKMHITFNQSAHIASMFYYAAEMQVDGAPDHAFMEDLFAATQMGEGTTLTEQQEAYSKAFTSRGLVSPYDFNEEQRDTLIKKVDNAKMLSEKSGISSVPTFVVNGKYNVLIGGHDDPKQIADTIRYLLEK”, the “soluble on expression in E. coli” value is “soluble”.
The result for “MRCVVYSIAKSSPLELVKIYQKQCRQFDCELELVDLFPKNTANAQKVSKKLAQKSYSLAFEPYLNPKAKNIALHPKAQRGDSFAFSKMLENHLNINFFIAGAYGFEENFLKDCQAWSLSEMTFSHEVAKIVLCEQIYRALSIIFKHPYHKLEHHHHHH” reads “not soluble”; that for “MAHHHHHHMESLDERWNNQVDNFHIKVNKLRCDMNEYKKGCYNTYNLRNNKNDVFPHLQNNNMKRRELINMNNNYEIKNYLKKPHNQTYILKDNKYVNVDDITFPVSKNISNKVIKTNDEKILENKCCFKLNVRNKRKNEKVIKINEKRWLIATKHVKIERVNKNGVEQSEEKNKKDKNRYIYLEGEEGNLHLYPMYSDSEVGFENISHIEDESLSKVKKENQDDDDIMTTKHLAQWSSDIVHKYLEEAIEKSKSIFQNCNMESRQEEIFKRIKL”, “not soluble”.
The result for “MGHHHHHHSHMAVWIQAQQLQGEALHQMQALYGQHFPIEVRHYLSQWIESQAWDSVDLDNPQENIKATQLLEGLVQELQKKAEHQVGEDGFLLKIKLGHYATQLQNTYDRCPMELVRCIRHILYNEQRLVREANNGSSP” reads “not soluble”.
The result for “MGNWAEITDEISKIYQDNQYKIRQINDVDAVSDKRREALQALFEHTGRNVIVYYSAWLENGRRFSGQSTDFSVNDTDKNSFMTALHKLDQSKGLDLILHTPGGDVAATESLVDYIHALFGQDFRVIVPQLAMSAGTMIALSSKEIVMGKHSSLGPIDPQFNGLPAHGLLEEFEQAKKEVSENPQTAHIWQVILNKYNPTMLGEAKKAIQWSNSMVKQWLEKGMFLDEPDKEEKATRAIKELADHSVTLAHNRHISVSKALELGLNIKELESDPKLQDLVLTLHHLSVIAAQRGPLIKFVVNHDNRGTFLQGHEN” reads “soluble”; that for “MGSDKIHHHHHHMKKASTLPLFERLVQHDRGGPISCHVPGHKQGALFHKDACSYFQSILSLDVTELTGLDDLHDPRGVIAEAQALTARYVGAEATCFLVNGSTVGNLAMILGTLEPGDTVFVQRDSHKSVMNGLAMARVHPIFLSPSYDERTQLPTGITEQTLKQALIEHPNGKALILTYPSYYGVARSIRPLVQMAKEAGLYVLVDEAHGAHFPVGDPFPKQALEQGADVVVQSAHKTLPALTMGSYLHFAHGLHSKIKDSIREQLQILQSSSPSYPILASLDAARGFLEDLTNVKDTLDSIAEMNRRIEQVERLSVATFSPLPTDPLKTVITVEGATGFALQTELEKEGIYSELADDRHVLLMWGLTPLQKVRQEEIIDKMCRATKRLPALEQISKGCPLSLSWQAHTSLDLSYDEQKRYSIEEVAVEEAVGKVSGATVIPYPPGVPLLLKGEKITEPLIAQFQQLQEAGARFQGRPSEQQGLYVFTLEAMT”, “not soluble”.
